This note sets out measurements from the DeepSol protein solubility set.

A short description of the series: soluble on expression in E. coli; label from the status in PepcDB or PDB records.
As for “MNDSIDDDFPPEPRGRCYTWPMQQYIYQESSATIPHHHLNQHNNPYHPMHPHHQLPHMQQLPQPLLNLNMTTLTSSGSSVASSIGGGAQCSPCASGSSTAATNSSQQQQTVGQMLAASVPCSSSGMTLGMSLNLSQGGGPMPAKKKRCRKKPTDQLAQKKPNPWGEESYSDIIAKALESAPDGRLKLNEIYQWFSDNIPYFGERSSPEEAAGWKNSIRHNLSLHSRFMRIQNEGAGKSSWWVINPDAKPGRNPRRTRERSNTIETTTKAQLEKSRRGAKKRIKERALMGSLHSTLNGNSIAGSIQTISHDLYDDDSMQGAFDNVPSSFRPRTQSNLSIPGSSSRVSPAIGSDIYDDLEFPSWVGESVPAIPSDIVDRTDQMRIDATTHIGGVQIKQESKPIKTEPIAPPPSYHELNSVRGSCAQNPLLRNPIVPSTNFKPMPLPGAYGNYQNGGITPINWLSTSNSSPLPGIQSCGIVAAQHTVASSSALPIDLENLTLPDQPLMDTMDVDALIRHELSQAGGQHIHFDL”, the “soluble on expression in E. coli” value is on record as “not soluble”.

With “SAADLGQIPDVDIDSDGVFKYVLIRVHLAEPSGDPAKECKEIVRGYKWAEYHADIYDKVSGELQRNGYDCECLGGGRISHQSQDRKIHVYGYSMGYGRAQHSVSTEKIKAKYPDYEVTWADDGY”, the “soluble on expression in E. coli” value was “soluble”.

Regarding “MKFETLDFNDEKDIKNFKTDCGDLQDCFTALPCRPGSNNQLDKRLRSIEWVCKAIVFLTEDFSNCFDKLHEKNAECVQNWNPLPNEIYLEDDKMKVEKMKENACDTYFGKDDCVKKEIIERCGQEEWNTFRKVPN”, the “soluble on expression in E. coli” value is listed as “not soluble”.

For the sequence “MTFFFDDRDQAVPYTATADDVAPTGQQIWQELQSGKWGEIAPFTVTPEMLEAAREARRQEIEAWRTEQEAKPFTFEWNGRIWNAGPDSLGRLSPVVMLAKSVTAQTHMAWSDADNQQVKLSMPELEELAESQKTALLTEAESVIRQPGRAVRLNRETDESGEARGRASVFPESVRSVVYAM”, the “soluble on expression in E. coli” value is recorded as “not soluble”.

“MGSDKIHHHHHHMKRKTLPKLLYADAKGNIFDHPHLCMAGMSGSEAVLPESVELIPLPEGSRLFTIPDTPPVAWDEQQRKFVTVASVREGRRPMPVQAVSAFMAPGYVRLLLPACDYSRKKVHLPLWSYTAVGWDEERDCFVVAASRVDTNQNWNPCNYDDRKLDPLVRQRLAEMPHNRLLEQLARCAVDYHCFAAKNLFFRRWEAPLPTSPACNSRCLGCISLQPSDCCPANHERIGFVPTPEEIVELALPHLLEAPEPIVSYGQGCEGDPIMQADTVAEATRRLKAATSRGTVNFNSNGSFPDRIAMLCDAGMDSMRFSMNSVREEVYDRYYRPVGYRFAEVKESVRLAGERGLFTMINYLVSPGVSDSADEVEALLRFIGETGVKMIQMRNLSIDPDFYNKRMGATGRGIGMYRMLERVKREFPHIQYGYYNRTRENFFPAGYEKGWPIR”: the “soluble on expression in E. coli” value is given as “not soluble”.

For “MKKLLSACLILFTVVCSAYAADEKEAAPAAEYAYYGFEPEIVTNYISNRKKLGFVKISVELMVKSPDDLVIVERHDPLLRAAIIEVLGNQAEEKVKSLTGREEIRRECFDMVNNLLTKEAGKPLVVNLLFTSYLYD”, the “soluble on expression in E. coli” value is given as “not soluble”.

“MAHHHHHHMPNSVDCDFLNAPAHPPCNNRISASSRSRDGASIRNIGSISNIGARNRGARNCDQVIHTVYVKYFEMERYLGNINYNMDYFNPVLNHPTKIEHGKIKILILDAPTNDLLPLYIKEMKNYNVTDLVRTCERTYNDGEITSAGINVHELIFPDGDAPTVDIVSNWLTIVNNVIKNNRAVAVHCVAGLGRAPVLASIVLIEFGMDPIDAIVFIRDRRKGAINKRQLQFLKAYKKKKKKKNCLRKCHFM”: the “soluble on expression in E. coli” value was “not soluble”.

Regarding “SEDCCMLPYYTAQSSPAMGMFNTSMGKLQRQLYKGEYTIFRYAPMFESDFIQISKRGEVIDVHNRARMVTMGIVRTSPCLTLPDVMLLARPAAVCDNARCGPATQKRESPPAEILELTRLLPLMFVKITIHNSVKKQLHLKLATGRSFYLQLCPPSDASEDLFVHWENLVYILRPPVEAYSDTRAILAGNTLDSSVLEEVQRSPVGYAMKFCEEKEQFRISRLHMNAEMFGSTYCDYTIEI”, the “soluble on expression in E. coli” value is listed as “soluble”.

Take “MLEIDNQTPLESDFLLLEKIANVLAPTQIIELVLVSDETIREINKDLRGCDYATDVLSFPLEAIPHTPLGSVVINAPLAQTNALKLGHSLENEIALLFIHGVLHLLGYDHEKDKGEQRQKESELIKAFNLPLSLIERTQDLEHHHHHH”: the “soluble on expression in E. coli” value is recorded as “not soluble”.

Regarding “MAHHHHHHMARHSSTPLSSSVCVRRKTMSSCRTSSFTHTSSRTLARVQRRFSRETTAPRAVLVTLQDARTNPRNAVRRLDDIHIPSLNQRLSSRLQNSSSQSNRDAIRSPSDANCTAQPNSDNANLATAVLSTKTSATQDAKFLLMPSISVSARAPDTAMADASCNTAPSASS”, the “soluble on expression in E. coli” value was “not soluble”.

In the case of “MRVLFIGDVFGQPGRRVLQNHLPTIRPQFDFVIVNMENSAGGFGMHRDAARGALEAGAGCLTLGNHAWHHKDIYPMLSEDTYPIVRPLNYADPGTPGVGWRTFDVNGEKLTVVNLLGRVFMEAVDNPFRTMDALLERDDLGTVFVDFHAEATSEKEAMGWHLAGRVAAVIGTHTHVPTADTRILKGGTAYQTDAGFTGPHDSIIGSAIEGPLQRFLTERPHRYGVAEGRAELNGVALHFEGGKATAAERYRFIED”, the “soluble on expression in E. coli” value is “soluble”.

Turning to “MFIPQIVPIRDLKNTSAISNLCHKTNEPIFITKNGYGDMVIMSMETYEGNAFFNNLYGNLEEAEMDLQNGRVSGIDEAIEEIKSRYDLEHHHHHH”, the “soluble on expression in E. coli” value was “not soluble”.

As for “MSESVQSNSAVLVHFTLKLDDGTTAESTRNNGKPALFRLGDASLSEGLEQHLLGLKVGDKTTFSLEPDAAFGVPSPDLIQYFSRREFMDAGEPEIGAIMLFTAMDGSEMPGVIREINGDSITVDFNHPLAGQTVHFDIEVLEIDPALEA”, the “soluble on expression in E. coli” value was “soluble”.

Consider “MISAHVWADAQRLWDFQQMGHEPHPCSVAIGLGSHDLGVAETTAELYHRGMAPVIVFTGATSRTTHERMPRGEAEHYRERAVELGVPERAILVEPNARNTGENIRLSRALLEDLGMPVTSVLLVSKPYEERRAYATARKLWPNVEWVCVSTSMTLPDYVKSIGDARLVIDMLVGAQQRLMVYPRQGFMIKQEIPEPIMTAYEHLRGHGFTSRLVPETAEQTLEHHHHHH”, for which the “soluble on expression in E. coli” value was “soluble”.

As for “RSFGLIIPDLENTSYARLAKLIEQNSRKAGYQILIGCSDDDPETEKKVAEALISRRIDALFVASGMPSANEYYLKLQNSGTPVIALDRPMDDEHFCCVISEDFDAAFELTESVLSPEIKTIGLIGALQDLQVSKERELGFRSACQKDDTAMTVGYGLHFSREEGKKVLDKWVQADSLPDAIVTTSYTLLEGVLDVMLEKPELMSQVRLATFGDNRLLDFLPVKINSLPQQFELIADSAMELALNASAKRYKPGVELIPRKIVKRQ”, the “soluble on expression in E. coli” value is “not soluble”.

Take “MKREEYLKNYLESYLRKKEVSLTEEEFNVILREFLRFAYNPEESGQEIADTADGSKTLIHKTYGEPYHSQTAGAIRESLYKFVRPSRILEKAKERKVIRILDVGFGLGYNLAVALKHLWEVNPKLRVEIISFEKELLKEFPILPEPYREIHEFLLERVPEYEGERLSLKVLLGDARKRIKEVENFKADAVFHDAFSPYKNPELWTLDFLSLIKERIDEKGYWVSYSSSLSVRKSLLTLGFKVGSSREIGRKRKGTVASLKAPVPPMEENEVRKLVLSPFAVPMRDEKLDKEPLEILIDYLLKVYKISR”: the “soluble on expression in E. coli” value was “soluble”.

For “MRPEDEALIVACIPSLRRYARGLTGERDRADDLVQDTLERAWSRFSRWQRRGELRAWMFGIMHNQFIDGLRAQKRQADYGAETEIPELPVRATQADRLEVRDLDRHLQRLPADLRAVLLLVAVEEFTYREAAQVLEVPIGTVMSRLSRARERLAALLQVQAEAPAASTVQRIRAT”, the “soluble on expression in E. coli” value is “not soluble”.

For “MGGSHHHHHHGMASALLDIECFTYLHRALESSIAPIVIFASNRGNCVIRGTEDITSPHGIPLDLLDRVMIIRTMLYTPQEMKQIIKIRAQTEGINISEEALNHLGEIGTKTTLRYSVQLLTPANLLAKINGKDSIEKEHVEEISELFYDAKSSAKILADQQDKYMK”, the “soluble on expression in E. coli” value was “not soluble”.

For “GPGSMHFPALFPEPLATAHASRLHPFPWSSSYESIFLCPPTSLCSSAASMTQPTLTEDELDDALGLAIRAANTAAFISNSVIDDKTNNIVEAQTRNNPNDLVTQCEKHCKEEVLNILRVGTPSYAILSDDMHSEAVLGDGPTWIVGPIDGTVSFKHGLFDFCISIALALRKEPILGVVCAPRLQEVFTAVNNRGAFSNGQRIHVSLVDSLRQSVVLLHHSGTRSDAAVRSVAAMQAELAKLPVQGLRCNGSAALDMCLVAAGRAELFWKAGVNPWNVAAGVIIVREAGGVVHDVESTDSFDLTCRSVCCGCSLDVTKHGVELSLKHNYRSSVLNTSS”, the “soluble on expression in E. coli” value is “not soluble”.

For “DEGPLMMNAFEMITLSQGLNLSALFDRRQDFVKRQTRFVSRREPSEIIANIEAVANSMGFKSHTRNFKTRLEGLSSIKAGQLAVVIEIYEVAPSLFMVDVRKAAGETLEYHKFYKKLCSKLENIIWRATEGIPKSEILRTITF”, the “soluble on expression in E. coli” value is “soluble”.

For the sequence “FASFSNFTLKYHEKRFQQYGYGLMLNDTNFPGGSSGSPLIGKDNKLNSIYFGVLEIYQSGSLARNDIGMSQILRTPQ”, the “soluble on expression in E. coli” value was “not soluble”.

Take “MIKLTEYIYLASEQPLSTGSITLNGLSKPTGNLLNKAFFFFINDFEGDPPGKFSYSNYLKTLNYQVCSMCSLPSDNQNIETPSAIALLGYIRNHFKNTCTTKLYILSALNGFENKPISKTVTRKLSDLSYKDLYYQEMKLLKIIR”: the “soluble on expression in E. coli” value was “not soluble”.

In the case of “MPADDLQQALNNSQNGDVITLGPGSYFGNFIISNQVTLRSNNKGEAIIDSQGKGHGLWLKNSQITIENLTITNWGHDLTDQNSGIYSHGKIDNNKVPSLTIRNNILIGDGFGIWLNQADKAIISHNRVKGNLTLRSADRGNGIQVANVTNSHVFLNEVSETRDGVYVISSQNNIIEQNTMHHLRYGIHYMYSYDNTVKNNTAYDTRAGYALMSSRRLTITGNKTTNSEDYGFLLNFITQSTFSHNYVKNVWTKPENKVLGRDGKGLFVYNSGYNTVKHNIIDTAEIGIHLTAGSENIKIFGNSFINNPTQVKYVSNKKQEWSKDGRGNYWSNYLGWDMGNDGIGDTIFEPNDGIDKLVWQYPEMKMIMDSPAILILRWVQRQFPVLKPPGVKDSFPLMSAPSLTKNEQAATPLAVTTSTFTKSNSAQSANTTSASLKELEHHHHHH”, the “soluble on expression in E. coli” value was “soluble”.

Turning to “GASCSGGDKSKAPVVSTADIENAAEVIKYYNTSLGVLKDMVKEKDVNAVLDYMEQKGKTPALSAIVPPAVVSKDSAIVLNPGNCFNEETRRNLKQNYTGLFQARTEFYANFDTYLSYLKKKDVTNAKKLLDVNYQLSTQMSEYKQNIFDILSPFTEQAELVLLVDNPLKAQIMSVRKMSSTMQSILNLYARKHRMDGPRIDLKVAELTKQLDAAKKLPVVNGHEGEMKSYQAFLSQVETFIKQVKKVREKGEYSDADYDMLTSAFETSII”, the “soluble on expression in E. coli” value was “soluble”.

“MFRRLGEKTTLYRAESPSQNSLASHHNSEVSLPSVDYSQEDRHSCNTLIGDEWSQNGDVIIQPLQKPSNTPTTQYERIITRREIANTESDLCKKLSLIVDLVSDFANDANRLYEGADELLKELRTKIRVYIYFLDVEMADVEKLLRFNVDRSTICDERIDWLLHFTKCHKEMRRVLNELSEEVCEDLESCLEMRAKGVIGKKPSSIILSTLSGMRNGMMTASKLLGCLPRQRA”: the “soluble on expression in E. coli” value is “not soluble”.
